Test [1] deals with T1, L104EA29YIg (human, UniProt P16410 38-161; P01857 99-330 = IgG part, A29Y; L104E).
T1 construct: extracellular domain;domain: hinge, CH2 and CH3 regions of IgC1; Same mobility as dimeric CTLA4Ig; Positions count from methionine +1, not on the UniProt precursor; also called double-site CTLA4 mutant molecule; ATCC PTA-2104
Description: flow cytometry on human CD80-transfected CHO cells. How it is done:
(§1) Bound immunoglobulin fusion protein was detected using fluorescein isothiocyanate-conjugated goat anti-human immunoglobulin.
(§2) Binding on a total of 5,000 viable cells was analyzed (single determination) on a FACScan, and mean fluorescence intensity (MFI) was determined from data histograms using PC-LYSYS.
On the technique in general: Flow cytometry measures light scatter and fluorescence of single cells or particles in a stream.

For test [2], the target named is T1, L104EA29YIg. Put plainly: flow cytometry on human CD86-transfected CHO cells. The protocol: as §1, §2

T1 sequence (P16410 other isoform, or with tags, fused parts or gaps A29Y/L104E): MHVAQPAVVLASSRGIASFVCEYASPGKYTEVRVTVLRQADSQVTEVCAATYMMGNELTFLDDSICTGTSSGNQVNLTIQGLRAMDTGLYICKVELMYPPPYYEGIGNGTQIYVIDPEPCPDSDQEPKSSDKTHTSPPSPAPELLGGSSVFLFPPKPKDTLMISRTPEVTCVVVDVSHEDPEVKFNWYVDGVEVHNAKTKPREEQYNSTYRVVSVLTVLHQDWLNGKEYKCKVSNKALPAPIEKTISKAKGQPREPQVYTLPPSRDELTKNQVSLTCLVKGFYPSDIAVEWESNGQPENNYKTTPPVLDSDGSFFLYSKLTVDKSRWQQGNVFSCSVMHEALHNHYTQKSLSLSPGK

B1: human CD80 on stably transfected CHO cells (ligand, UniProt P33681 35-288, looked up)
chain: VIHVTKEVKEVATLSCGHNVSVEELAQTRIYWQKEKKMVLTMMSGDMNIWPEYKNRTIFDITNNLSIVILALRPSDEGTYECVVLKYEKDAFKREHLAEVTLSVKADFPTPSISDFEIPTSNIRRIICSTSGGFPEPHLSWLENGEELNAINTTVSQDPETELYAVSSKLDFNMTTNHSFMCLIKYGHLRVNQTFNWNTTKQEHFPDNLLPSWAITLISVNGIFVICCLTYCFAPRCRERRRNERLRRESVRPV
notes: whole, on cells; also called CD80-positive CHO cells; CD80+ CHO cells
With B1, in test [1], the binding result is listed as “binds”.

B2: human CD86 on stably transfected CHO cells (ligand, UniProt P42081 24-329, looked up)
chain: APLKIQAYFNETADLPCQFANSQNQSLSELVVFWQDQENLVLNEVYLGKEKFDSVHSKYMGRTSFDSDSWTLRLHNLQIKDKGLYQCIIHHKKPTGMIRIHQMNSELSVLANFSQPEIVPISNITENVYINLTCSSIHGYPEPKKMSVLLRTKNSTIEYDGVMQKSQDNVTELYDVSISLSVSFPDVTSNMTIFCILETDKTRLLSSPFSIELEDPQPPPDHIPWITAVLPTVIICVMVFCLILWKWKKKKRPRNSYKCGTNTMEREESEQTKKREKIHIPERSDEAQRVFKSSKTSSCDKSDTCF
notes: whole, on cells; also called CD86-positive CHO cells; CD86+ CHO cells
For the molecule B2, the binding result in test [2] is listed as “binds”.

The record behind these values is patent US20020039577A1 (published 2002).
